Laboratory results published in the supplement of paper PMC12855868.

B1: library; numbered along this chain (parent)
chain: MAAAGGARLLRAASAVLGGPAGRWLHHAGSRAGSSGLLRNRGPGGSAEASRSLSVSARARSSSEDKITVHFINRDGETLTTKGKVGDSLLDVVVENNLDIDGFGACEGTLACSTCHLIFEDHIYEKLDAITDEENDMLDLAYGLTDRSRLGCQICLTKSMDNMTVRVPETVADARQSIDVGKTS

Variants of: B1
Assay: scaled log2 fold change in cell abundance, elesclomol vs control (0 = silent mean, 1 = nonsense mean) (scaled log2 ratio); higher = higher viability under elesclomol (loss of FDX1 cuproptosis function)
Settings: glucose 10 mM
[1] = with ABC1 FDX1 KO, elesclomol 5 nM, 14 days
[2] = with HEK293T FDX1 KO, elesclomol 40 nM, 11 days
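Note: variant abundance is its share of total variant reads in each endpoint sample, from next-generation sequencing of the integrated ORF PCR-amplified out of genomic DNA.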

| Variant | scaled log2 fold change [1] | scaled log2 fold change [2] |
| --- | --- | --- |
| T80K | 0.183 | -0.131 |
| G42T | 0.268 | 0.377 |
| G42Y | 0.307 |  |
| A7P | 0.316 |  |
| A7G | 0.124 | -0.098 |
| A7H | 0.443 | 0.0712 |
| R74P | 0.11 |  |
| R74H | -0.0392 | -0.565 |
| R74W | 0.234 |  |
| S61K | -0.0816 |  |
| S61Q | 0.577 |  |
| L37D | -0.0765 | -0.369 |
| L37G | 0.613 | -0.248 |
| L25M | 0.607 | 1.17 |
| L25T | 0.536 |  |
| T170K | 0.0703 | 0.727 |
| S113R | 0.116 | 0.165 |
| S113P | 1.03 | 1.16 |
| D128T | -0.378 |  |
| D128N | -0.106 | -0.13 |
| I100W | 0.297 | -0.693 |

| Variant | scaled log2 fold change [1] | scaled log2 fold change [2] |
| --- | --- | --- |
| D101Y | 0.239 | 1.05 |
| G151V | 0.707 | -0.147 |
| G181A | -0.623 | -0.352 |
| G181D | 0.217 | -0.438 |
| A57R | 0.224 | 0.591 |
| A57W | -0.231 | 0.0227 |
| L110Q | -0.0207 | -0.0815 |
| S177F | -0.0241 | -0.0862 |
| T78P | -0.0243 | -0.366 |
| T164I | -0.259 | -0.338 |
| T164Y | -1.38 | 0.173 |
| S63I | -1.11 | 0.315 |
| S63E | 0.199 | -0.451 |
| S63Y | 0.0691 | 0.7 |
| E95P | 0.178 | -0.222 |
| E95R | -0.296 | -0.0027 |
| A12K | 0.0242 | -0.213 |
| D179N | 0.063 |  |
| D179H | 0.224 |  |
| N135D | 0.117 | 0.905 |
| E134F | 1.23 | 1.01 |

| Variant | scaled log2 fold change [1] | scaled log2 fold change [2] |
| --- | --- | --- |
| E134M | 0.946 | 0.587 |
| E134R | 1.23 | 1.26 |
| E134P | 1.22 | 1.01 |
| L17M | 0.05 | 0.0514 |
| L17R | -0.051 | 0.603 |
| L17N | 0.306 |  |
| R39S | 0.489 | 0.0758 |
| R39V | 0.374 | -0.208 |
| I67M | 0.35 | 0.129 |
| I67G | 0.747 | 0.579 |
| I67W | 0.658 | -0.0492 |
| C155F | -0.0473 | -0.0932 |
| M160V | -0.27 |  |
| F103H | 0.673 | 1.17 |
| P168Y | 0.394 | -0.173 |
| P168N | 0.157 | -0.31 |
| V165G | 0.475 | 0.411 |
| V165W | 0.852 | 0.405 |
| I130Y | 0.33 | 0.102 |
| I130C | -0.188 | 1.38 |
